Assay results published in the supplement of paper PMC10567573.
± gives the standard deviation.

Assay: protein stability index of a GFP-peptide fusion (GPS, HEK-293T) (PSI 1-6); higher = more stable
[1] = treatment: DMSO, c terminus: a fixed tail appended
[2] = treatment: MLN4924 1 uM, 8 h, c terminus: a fixed tail appended
[3] = treatment: DMSO, c terminus: native
[4] = treatment: MLN4924 1 uM, 8 h, c terminus: native
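Note: 24-mer peptide tiles fused after GFP, lentivirally expressed, FACS-sorted into six equal bins by GFP/DsRed ratio, decoded by Illumina sequencing, PSI is the read-weighted mean bin number.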

| Sequence | protein stability index [1] | protein stability index [2] | protein stability index [3] | protein stability index [4] |
| --- | --- | --- | --- | --- |
| SCSSDGGIAVWNMDVSREEAPQWL [WDFY1] | 3.07 ± 0.09 | 3.08 ± 0.23 |  |  |
| SDAGSPSLHKHLTIRLNISDVNDN [PCDHGC5] | 3.73 ± 0.17 | 3.71 ± 0.24 |  |  |
| SDLSRSSRGELIPISPSTEVGGSG [MYBL2] | 5 ± 0.4 | 4.86 ± 0.34 |  |  |
| SEAQLTDAETSKLIYDFIEDQGGL [WAS] | 4.53 ± 0.38 | 4.62 ± 0.23 |  |  |
| SELDADHPGFKDNVYRKRRKYFAD [TPH1] | 4.13 ± 0.21 | 4.19 ± 0.2 |  |  |
| SELGDYDPDECGSDYISEFRFAPN [EPB41L3] | 2.22 ± 0.34 | 3.12 ± 0.78 |  |  |
| SELTRLIQRIRSEIENVKKQASNL [KRT71] | 2.09 ± 0.068 | 2.22 ± 0.21 |  |  |
| SEPHYGHAGTVYGGVMYISGGITH [KLHL13] | 2.17 ± 0.47 | 2.14 ± 0.17 |  |  |
| SFCELHLKPHLEGAAFRDHQLLEP [TRIM29] | 2.87 ± 0.14 | 2.93 ± 0.087 |  |  |
| SFINFFTSVLATLVVFAVLGFKAN [SLC6A17] | 4.11 ± 0.85 | 3.06 ± 0.36 |  |  |
| SFTQEQVADIDGQYAMTRAQRVRA [CTNNB1] | 4.62 ± 0.19 | 4.62 ± 0.14 |  |  |
| SGCLPPEPLFEAGDATLASDLQDW [FOXJ1] | 4.82 ± 0.36 | 4.74 ± 0.18 |  |  |
| SGCSSELKNRMEYALNMLLQRCN [PLK2] |  |  | 3.57 ± 0.15 | 3.77 ± 0.12 |
| SGDCDQRFRFPSPILKVQYHPRDQ [RBBP5] | 3.8 ± 0.19 | 3.74 ± 0.27 |  |  |
| SGEKPYKCSDCGKAFLTKTMLIVH [ZNF649] | 3.52 ± 0.24 | 3.68 ± 0.35 |  |  |
| SGGSGGRGTGQLNRFVQLSGRPHL [KLHDC10] | 3.48 ± 0.28 | 3.65 ± 0.16 |  |  |
| SGNFERCIRLWKYALDMQQSNLEP [FEM1A] | 2.12 ± 0.12 | 2.38 ± 0.48 |  |  |
| SGRGTGRGGGGGGGGGAPRGRYGP [SRSF1] | 4.79 ± 0.24 | 4.83 ± 0.15 |  |  |
| SHKGAEELALALKGNTTLQQLDLR [LRRC45] | 3.99 ± 0.18 | 4.17 ± 0.65 |  |  |
| SIRLPLDAPLPGSKAKPKPPKQAQ [TBC1D10A] | 4.36 ± 0.09 | 4.72 ± 0.11 |  |  |
| SISRGRHARTHPQTALLESSCENK [MATN2] | 4.87 ± 0.22 | 4.88 ± 0.27 |  |  |
| SKAFLLQTVDGKHQDLKYISPETM [CDC25B] | 3.22 ± 0.098 | 3.37 ± 0.29 |  |  |

| Sequence | protein stability index [1] | protein stability index [2] | protein stability index [3] | protein stability index [4] |
| --- | --- | --- | --- | --- |
| SKCQRLFRSPSMPCSVIRPILKRL [CDC25B] | 2.85 ± 0.2 | 2.65 ± 0.24 |  |  |
| SKGMSIFLDILRRADKNDDGKLSF [NECAB1] | 2.27 ± 0.12 | 2.33 ± 0.17 |  |  |
| SKLVPAIQNAHKNSTGSGRGKKLM [TPRG1] | 4.6 ± 0.24 | 4.58 ± 0.16 |  |  |
| SKYGRDWERYTAAVPYRLLPGIF [DHCR7] |  |  | 2.87 ± 0.4 | 2.57 ± 0.46 |
| SLDSLDGLSLTDESDSCVSFEAPL [PSD2] | 4.95 ± 0.2 | 4.86 ± 0.23 |  |  |
| SLGKTNVKDDELDAMLKEASGPIN [MYL5] | 5.14 ± 0.26 | 5.35 ± 0.16 |  |  |
| SLGYGFVNYSDPNDADKAINTLNG [ELAVL3] | 3.76 ± 0.22 | 3.98 ± 0.18 |  |  |
| SLKDQERVAEVSRVRVELQEQNGR [LRRC45] | 5.17 ± 0.45 | 4.91 ± 0.26 |  |  |
| SLLFVVMFIPETKGCSLEQISMEL [SLC2A12] | 2.93 ± 0.53 | 3.2 ± 0.13 |  |  |
| SLLRRIKGKLFTWNILKTIALGQM [SLC35F2] | 2.31 ± 0.63 | 2.38 ± 0.23 |  |  |
| SLMPLQKSISPWKSPPQLRQFLPE [DENND6A] | 2.72 ± 0.21 | 2.51 ± 0.52 |  |  |
| SLNRACHQQNKIKDLQKEQKTLQV [CEP70] | 3.53 ± 0.66 | 3.45 ± 0.45 |  |  |
| SLPKRLCLVCGDVASGYHYGVASC [ESRRA] | 2.22 ± 0.28 | 2.43 ± 0.48 |  |  |
| SLQKLSTKLSAQSAQYSQQLQAAR [FCHSD1] | 3.34 ± 0.18 | 3.54 ± 0.22 |  |  |
| SNISRPRDNPMCLKCDLQERLLCP [M1AP] | 2.87 ± 0.095 | 3.05 ± 0.26 |  |  |
| SNSADDETDDPRRYQKYGYIGTHE [OAS1] | 4.99 ± 0.11 | 4.85 ± 0.16 |  |  |
| SPEKEEQYIAQFTSQFLSLQCLQA [PRAME] | 2.84 ± 0.41 | 2.44 ± 0.37 |  |  |
| SPGSPVGEGTGSPPKWQIGEQEFE [ADD1] | 5.35 ± 0.14 | 5.35 ± 0.25 |  |  |
| SPHRKRSDDSDEDEPCAISGKWTF [DLC1] | 4.47 ± 0.22 | 4.51 ± 0.13 |  |  |
| SPLLSQETAGQKPLSVHRPPTSGC [TSPAN10] | 4.4 ± 0.17 | 4.46 ± 0.18 |  |  |
| SPNSTPAKTIDTSPPVDLFATASA [SNAP91] | 4.8 ± 0.18 | 4.67 ± 0.15 |  |  |
| SPSRAPGLRQRASNKVQDSAPVET [HMOX1] | 5.01 ± 0.27 | 5.22 ± 0.2 |  |  |

| Sequence | protein stability index [1] | protein stability index [2] | protein stability index [3] | protein stability index [4] |
| --- | --- | --- | --- | --- |
| SPSVMRLVHTQEPGEWLELLLEPG [ALKBH7] | 2.83 ± 0.23 | 3 ± 0.24 |  |  |
| SPTDIQDSSIIRTTQDLFAINRDT [RHOBTB3] | 4.47 ± 0.15 | 4.67 ± 0.44 |  |  |
| SPTFPALGIGMDSCVIPLRHGGLS [SEPHS2] | 2.98 ± 0.15 | 2.98 ± 0.29 |  |  |
| SQVSMWDQRWQDHQPLLPITDVP [APBB1IP] |  |  | 2.63 ± 0.55 | 3.22 ± 0.51 |
| SRAGGPTTPLSPTRLSRLQEKEEL [LMNB1] | 5.15 ± 0.37 | 5.36 ± 0.15 |  |  |
| SRAPCKVQGLEGIKMAMVACGDAF [NEK8] | 2.27 ± 0.38 | 2.25 ± 0.27 |  |  |
| SRSPLKIVKKPKSMQCKVILLDGS [EPB41L3] | 2.52 ± 0.081 | 2.51 ± 0.29 |  |  |
| SSFFTCNQKCQLRLLKTLETSRSH [ATP23] | 2.44 ± 0.31 | 2.58 ± 0.33 |  |  |
| SSGKVLPKWGWEQLEVTCTPYLKE [POMT2] | 2.64 ± 0.33 | 2.67 ± 0.33 |  |  |
| SSLVWLFSQLYLYSFISLFIYMVL [MCOLN1] | 3.02 ± 0.19 | 3.03 ± 0.68 |  |  |
| SSQDRMFETMAIEIEQLLARLTGV [GOSR1] | 2.52 ± 0.24 | 2.62 ± 0.44 |  |  |
| SSRSSEESSSDSGSSDSEEERATR [BRD3] | 5.06 ± 0.33 | 5.08 ± 0.2 |  |  |
| SSTLVRPIRSRRALPPLRTRSKSD [FAM189A2] | 4.65 ± 0.31 | 4.6 ± 0.084 |  |  |
| STAKKEDINLSVRKLLNRHNIVFG [TRIP13] | 2.5 ± 0.27 | 2.61 ± 0.24 |  |  |
| STESDKPTTGRVYESDSSNHCMLS [C18orf25] | 4.88 ± 0.2 | 4.89 ± 0.32 |  |  |
| STKPSGSPLEEKHDQCKCENLIMF [MATN2] | 3.3 ± 0.15 | 3.41 ± 0.099 |  |  |
| STTTTTHITKTVKGGISETRIEKR [EPB41L3] | 4.86 ± 0.2 | 5.01 ± 0.21 |  |  |
| STWLILHHKVYDLTKFLEEHPGGE [CYB5A] | 2.17 ± 0.29 | 2.21 ± 0.32 |  |  |
| SVEAGGSVHFDGETIEGAPPLWAA [FEM1A] | 4.09 ± 0.15 | 4.12 ± 0.48 |  |  |
| SVFSARDRDPNSLLISCAVSYRGA [TNXB] | 2.4 ± 0.22 | 2.06 ± 0.16 |  |  |
| SVLEQLELQEKQKNEKLISLQEQL [TAF7L] | 4.24 ± 0.25 | 4.19 ± 0.3 |  |  |
| SVRRTRSKIGFGILLSKEPDGVWA [SMAD6] | 2.18 ± 0.12 | 2.3 ± 0.12 |  |  |

| Sequence | protein stability index [1] | protein stability index [2] | protein stability index [3] | protein stability index [4] |
| --- | --- | --- | --- | --- |
| SWEVVRNPLIASSFSLVKLVLRRQ [C22orf31] | 2.52 ± 0.53 | 2.21 ± 0.28 |  |  |
| SWREAKVSWFGSPTTSFLSISKLS [PWWP2B] | 2.15 ± 0.46 | 2.44 ± 0.43 |  |  |
| SWVTDMCKVGASSDPCGQLRPTLL [PNLIPRP1] | 2.14 ± 0.38 | 2.34 ± 0.41 |  |  |
| SYAFPKEFPYRMNHILECEFYLLE [CCNC] | 2.24 ± 0.57 | 2.7 ± 1.1 |  |  |
| TAEMARVLTDSNHVPLQRLSLLVH [FBXO33] | 2.83 ± 0.39 | 2.79 ± 0.096 |  |  |
| TALKKWMFLQLVPSWNGSLKQLLT [GMCL1] | 2.74 ± 0.56 | 2.43 ± 0.43 |  |  |
| TASSSYGKGEGPIWLDNLHCTGNE [LOXL2] | 3.91 ± 0.16 | 3.91 ± 0.25 |  |  |
| TATTAPPALDIFGDLFESTPEVAA [SNAP91] | 4.62 ± 0.29 | 4.71 ± 0.2 |  |  |
| TCSSCLLRAPTISDLLNDQDLLDV [EDARADD] | 2.57 ± 0.29 | 2.56 ± 0.43 |  |  |
| TDGSVLAAGTHDGSVYFWATPRQV [WSB1] | 2.9 ± 0.18 | 2.89 ± 0.37 |  |  |
| TEEEDRIICEAHKVLGNRWAEIAK [MYBL2] | 3.85 ± 0.1 | 3.92 ± 0.46 |  |  |
| TEGFTSGRHYWEVEVGDKTHWAVG [TRIM39] | 2.85 ± 0.44 | 2.93 ± 1.1 |  |  |
| TERLSHQITSRVVSAATQLRHFFL [RTN2] | 4.1 ± 0.17 | 4.08 ± 0.14 |  |  |
| TETEATNSLITAPGEFSDASMSPD [SMAD6] | 5.42 ± 0.2 | 5.28 ± 0.37 |  |  |
| TFDIDPMVVTDCIQVDPPERPPPP [MCOLN1] | 4.69 ± 0.29 | 4.89 ± 0.35 |  |  |
| TFGDHHKDRRFAYGRSDVVVLCFS [RHOBTB1] | 2.38 ± 0.53 | 2.43 ± 0.55 |  |  |
| TFGNSTLALGPGESLPHRLSCLGQ [PLAGL1] | 3.19 ± 0.18 | 3.29 ± 0.18 |  |  |
| TFLPDNFSPAKPKPSKELKPLLGS [MYORG] | 3.52 ± 0.088 | 3.69 ± 0.28 |  |  |
| TGELETLKERCAQDACQAQAREKE [CCDC89] | 5.46 ± 0.31 | 5.39 ± 0.2 |  |  |
| TGNSLNEPEEPSEIPERRDSGVGA [DLC1] | 5.58 ± 0.19 | 5.59 ± 0.26 |  |  |
| TGTKKVTRILDGGNPFLDVPQALS [PSD2] | 3.24 ± 0.36 | 3.4 ± 0.12 |  |  |
| TGTPLVAGSPIRHENAVQGSAVEV [ISL2] | 4.48 ± 0.22 | 4.45 ± 0.18 |  |  |
